{"source": "patent US20090208410A1", "about": "“ED-B FIBRONECTIN AS STRATIFICATION MARKER FOR ANTI-TUMOR DRUGS” (priority 2007, published 2009)", "tested_on": "NCI-H292 and Calu-6 tumor tissue", "experiment": "In vitro binding of biotinylated AP39 to frozen sections of tumor tissue (ExtrAvidin / DAB staining)", "parameters": "species or system human", "conditions": "frozen sections (5-10 μm); NCI-H292 (FIG. 1A) compared to Calu-6 (FIG. 1B)", "experimental": "Binding studies were performed in two human NSCLC tumor models in mice: NCI-H292 which is an erlotinib-sensitive epithelial-type model, and Calu-6 which is an erlotinib-resistant mesenchymal-type model.\nTCEP-reduced AP39 was biotinylated using 3-(N-maleimidopropionyl) biocytin (Sigma). The in vitro binding of biotinylated AP39 to frozen sections (5-10 μm) of NCI-H292 and Calu-6 tumor tissue was determined by utilizing ExtrAvidin (Sigma) and Liquid DAB Substrate Pack (BioGenex) according to the protocols of the manufacturers."}
{"molecule": "biotinylated AP39: TCEP-reduced AP39 biotinylated using 3-(N-maleimidopropionyl) biocytin (conjugate) scFv: EVQLLESGGGLVQPGGSLRLSCAASGFTFSSFSMSWVRQAPGKGLEWVSSISGSSGTTYYADSVKGRFTISRDNSKNTLYLQMNSLRAEDTAVYYCAKPFPYFDYWGQGTLVTVSSGDGSSGGSGGASTGEIVLTQSPGTLSLSPGERATLSCRASQSVSSSFLAWYQQKPGQAPRLLIYYASSRATGIPDRFSGSGSGTDFTLTISRLEPEDFAVYYCQQTGRIPPTFGQGTKVEIKGGGCA", "values": [{"measurement": "binding to tumor tissue, NCI-H292 compared to Calu-6", "value": "more extensive binding"}]}
